In patent US20210087270A1:

Tests used:
[1] = target: recombinant human KIR3DL2 protein (human) (UniProt P43630); experiment: SPR (Biacore), average bivalent binding affinity to recombinant KIR3DL2
[2] = target: human KIR3DL2 (CD158k), wild type, at the cell surface (human) (UniProt P43630); experiment: flow cytometry, concentration-response binding of PE-labelled IPH4102 on HuT78 Sezary cell line
[3] = target: recombinant human KIR3DL2 protein (human) (UniProt P43630); experiment: SPR (Biacore), mean off-rate for bivalent binding converted to per hour
[4] = target: human KIR3DL2 (CD158k), wild type, at the cell surface (human) (UniProt P43630); experiment: cell-based or functional assay
[5] = target: recombinant human KIR3DL2 protein (human) (UniProt P43630); experiment: SPR (Biacore), bivalent binding, N = 2
[6] = target: human KIR3DL2 (CD158k), wild type, at the cell surface (human) (UniProt P43630); experiment: PK/PD model parameter 'Binding affinity', set from the filing's flow cytometry titration of IPH4102 on KIR3DL2-positive cells (EC50 about 0.07 ug/mL); not a separate kinetic measurement
[7] = target: human KIR3DL2 (CD158k), wild type, at the cell surface (human) (UniProt P43630); experiment: flow cytometry, concentration-response binding of PE-labelled IPH4102 on primary Sezary tumor cells
[8] = target: recombinant human KIR3DL2 protein (human) (UniProt P43630); experiment: SPR (Biacore), bivalent binding, N = 3
[9] = target: recombinant human KIR3DL2 protein (human) (UniProt P43630); experiment: SPR (Biacore), bivalent binding, N = 1
[10] = target: human KIR3DL2 (CD158k), wild type, at the cell surface (human) (UniProt P43630); experiment: flow cytometry, concentration-response binding of PE-labelled IPH4102 on COU-L Sezary cell line
[11] = target: recombinant human KIR3DL2 protein (human) (UniProt P43630); experiment: SPR (Biacore), bivalent binding, mean of three

Chain of human KIR3DL2 (CD158k), wild type, at the cell surface (human) (P43630 22-455 E158D): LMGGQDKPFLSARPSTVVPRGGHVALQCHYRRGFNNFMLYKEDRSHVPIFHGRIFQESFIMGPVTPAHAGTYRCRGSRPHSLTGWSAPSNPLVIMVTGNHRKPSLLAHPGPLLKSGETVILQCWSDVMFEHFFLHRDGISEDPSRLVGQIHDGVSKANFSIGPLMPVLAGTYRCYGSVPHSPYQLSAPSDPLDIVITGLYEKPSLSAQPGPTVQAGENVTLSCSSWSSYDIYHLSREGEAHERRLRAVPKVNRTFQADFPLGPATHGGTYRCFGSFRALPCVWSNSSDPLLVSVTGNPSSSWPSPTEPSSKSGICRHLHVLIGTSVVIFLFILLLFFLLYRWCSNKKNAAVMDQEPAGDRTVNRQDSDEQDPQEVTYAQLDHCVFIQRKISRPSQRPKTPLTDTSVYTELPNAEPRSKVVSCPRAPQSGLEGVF

B1: IPH4102 (humanized 2B12 mAb, full-length human IgG1 anti-KIR3DL2 antibody) (antibody, from a related filing, V domains shown)
VH: QIQLVQSGSELKKPGASVKVSCKASGYTFTTAGMQWVRQAPGQGLEWIGWINSHSGVPKYAEDFKGRFVFSLDTSVSTAYLQISSLKAEDTAVYFCARGGDEGVMDYWGQGTTVTVSS
VL: DIQMTQSPSFLSASVGDRVTITCKASQDVSTAVAWYQQKPGQPPKLLIYWTSTRHTGVPDRFSGSGSGTDYTLTISSLQAEDVAVYYCQQHYSTPWTFGGGTKVEIK
Kd [1]: 0.0219 µg/mL
EC50 [2]: 0.06 µg/mL
koff [3]: 0.00014 s⁻¹
EC50 in 51Cr-release assay HuT 78 tumor lysis by PBMC from healthy volunteers [4]: 0.045 µg/mL
median EC10 in the 51Cr release assay (HuT78 tumor cell lysis by healthy donors' PBMC, NK cell lytic capacity) [4]: 0.002 µg/mL
Kd [5]: 0.131 nM
koff [5]: 0.000125 s⁻¹
kon [5]: 953000 M⁻¹ s⁻¹
Kd [6]: 0.07 µg/mL
EC50 [7]: 0.07 µg/mL
Kd [8]: 0.144 nM
koff [8]: 0.000139 s⁻¹
kon [8]: 965000 M⁻¹ s⁻¹
Kd [9]: 0.162 nM
koff [9]: 0.000156 s⁻¹
kon [9]: 968000 M⁻¹ s⁻¹
EC50 [10]: 0.087 µg/mL
Kd [11]: 0.146 nM
koff [11]: 0.00014 s⁻¹
kon [11]: 962000 M⁻¹ s⁻¹
